Test [1] addresses full-length murine I-A^d/OVA 323-339 MHC class II fusion complex (pJRS165.1) expressed on NSO cells (mouse; chicken) (UniProt P04228). Put plainly: flow cytometry, FITC-conjugated isotype matched irrelevant antibody 1:100, clone NSO/IA^d/OVA.B4. (Flow cytometry measures light scatter and fluorescence of single cells or particles in a stream.)
The target is the same in test [2]. As to the kind of experiment: flow cytometry, FITC-conjugated isotype matched irrelevant antibody 1:100, clone NSO/IA^d/OVA.B5.
The target of test [3] is murine class II MHC molecule I-A^d on A20.1-11 cells (mouse) (UniProt P04228). Put plainly: flow cytometry, FITC-conjugated isotype matched irrelevant antibody 1:100, A20.1 cells (+ control).
Test [4] concerns the target full-length murine I-A^d/OVA 323-339 MHC class II fusion complex (pJRS165.1) expressed on NSO cells (mouse; chicken) (UniProt P04228). Put plainly: flow cytometry, FITC-conjugated isotype matched irrelevant antibody 1:100, clone NSO/IA^d/OVA.A4.
Test [5] has the same target. Put plainly: flow cytometry, FITC-conjugated isotype matched irrelevant antibody 1:100, clone NSO/IA^d/OVA.B2.
Test [6] has as its target membrane-bound single-chain I-A^d-OVA (SCT1 gene, with the alpha chain transmembrane domain) on transfected NS-0 cells (mouse (I-A^d); chicken (OVA peptide)). As to the kind of experiment: flow cytometry, FITC-conjugated 10-3.6 1:100 (negative control), T2 (SCT1-transfectant) cells.
Test [7] has the same target. As to the kind of experiment: flow cytometry, FITC-conjugated 10-3.6 1:100 (negative control), T6 (SCT1-transfectant) cells.
For test [8] the target is unchanged. Put plainly: flow cytometry, FITC-conjugated 10-3.6 1:100 (negative control), T12 (SCT1-transfectant) cells.
Test [9] concerns the target Neuron Specific Enolase (NSE), in supernatant of SF9 cells infected with a recombinant Baculovirus. As to the kind of experiment: sandwich I-A^d ELISA, M5/114 capture, biotinylated AMS-32.1 probe; supernatant of SF9 cells infected with NSE Baculovirus.
Test [10] addresses soluble single-chain I-A^d-OVA (SSC1 gene; 6xHis tag), produced in SF9 insect cells (mouse (I-A^d); chicken (OVA peptide)). Put plainly: sandwich I-A^d ELISA, M5/114 capture, biotinylated AMS-32.1 probe, 405 nm; cotransfection supernatant diluted 1:2.
For test [11] the target is unchanged. As to the kind of experiment: sandwich I-A^d ELISA, M5/114 capture, biotinylated AMS-32.1 probe; supernatant of virus clone F8. (An ELISA detects its analyte on a solid surface through an enzyme-linked reagent.)
Test [12] deals with membrane-bound single-chain I-A^d-OVA (SCT1 gene, with the alpha chain transmembrane domain) on transfected NS-0 cells (mouse (I-A^d); chicken (OVA peptide)). As to the kind of experiment: flow cytometry, FITC-conjugated AMS 32.1 1:100, T12 (SCT1-transfectant) cells.
Test [13] concerns the target soluble single-chain I-A^d-OVA with EE antibody tag (SCE1 gene), secreted by transfected NSO cells (mouse (I-A^d); chicken (OVA peptide)). Put plainly: sandwich I-A^d ELISA of Example 18 (M5/114 capture, biotinylated AMS-32.1 probe); undiluted supernatant of E10 (SCE1 transfectant).
Test [14] deals with soluble single-chain I-A^d-OVA (SSC1 gene; 6xHis tag), produced in SF9 insect cells (mouse (I-A^d); chicken (OVA peptide)). Put plainly: sandwich I-A^d ELISA, M5/114 capture, biotinylated AMS-32.1 probe, 405 nm; cotransfection supernatant diluted 1:4.
Test [15] shares this target. Put plainly: sandwich I-A^d ELISA, M5/114 capture, biotinylated AMS-32.1 probe; supernatant of virus clone C6.
For test [16], the target named is soluble single-chain I-A^d-OVA with EE antibody tag (SCE1 gene), secreted by transfected NSO cells (mouse (I-A^d); chicken (OVA peptide)). Put plainly: sandwich I-A^d ELISA of Example 18 (M5/114 capture, biotinylated AMS-32.1 probe); undiluted supernatant of E11 (SCE1 transfectant).
Test [17] deals with soluble single-chain I-A^d-OVA (SSC1 gene; 6xHis tag), produced in SF9 insect cells (mouse (I-A^d); chicken (OVA peptide)). As to the kind of experiment: sandwich I-A^d ELISA, M5/114 capture, biotinylated AMS-32.1 probe, 405 nm; cotransfection supernatant diluted 1:8.
For test [18] the target is unchanged. Put plainly: sandwich I-A^d ELISA of Example 18 (M5/114 capture, biotinylated AMS-32.1 probe); sc I-A^d-OVA from insect cell culture (positive control).
The target of test [19] is membrane-bound single-chain I-A^d-OVA (SCT1 gene, with the alpha chain transmembrane domain) on transfected NS-0 cells (mouse (I-A^d); chicken (OVA peptide)). Put plainly: flow cytometry, FITC-conjugated AMS 32.1 1:100, T6 (SCT1-transfectant) cells.
The target in test [20] is soluble single-chain I-A^d-OVA (SSC1 gene; 6xHis tag), produced in SF9 insect cells (mouse (I-A^d); chicken (OVA peptide)). As to the kind of experiment: sandwich I-A^d ELISA, M5/114 capture, biotinylated AMS-32.1 probe, 405 nm; cotransfection supernatant undiluted.
Test [21] deals with membrane-bound single-chain I-A^d-OVA (SCT1 gene, with the alpha chain transmembrane domain) on transfected NS-0 cells (mouse (I-A^d); chicken (OVA peptide)). Put plainly: flow cytometry, FITC-conjugated AMS 32.1 1:100, T2 (SCT1-transfectant) cells.
Test [22] concerns the target T cell receptor of the murine T cell hybridoma DO11.10 (specific for OVA 323-339 in the context of I-A^d) (mouse). As to the kind of experiment: cell-based or functional assay.

As for “FITC-conjugated anti-IA^k antibody (Pharmingen), isotype matched irrelevant antibody, Example 13”, the peak channel fluorescence in test [1] is 11; in [2], 10; in [3], 5; in [4], 34; in [5], 14.
On to “10-3.6 anti-I-A^k antibody (PharMingen), isotype matched negative control”, for which the Mean Fluorescence came out at 22 in [6], 45.1 in [7] and 45.9 in test [8].
In the case of “AMS-32.1 anti-IA^d monoclonal antibody (PharMingen)”, the Absorbance in test [9] came out at 0.098; in test [10] it was 0.524; in [11] it was 1.45; in test [13], 0.781; in test [14], 0.305; in [15], 1.56. The Absorbance came out at 0.96 in test [16], 0.165 in test [17], 2.44 in [18] and 0.857 in [20]. The Mean Fluorescence in test [12] turned out to be 911; in [19], 418; in [21] it was 613.

B1: soluble single-chain I-A^d-OVA (SSC1 gene; 6xHis tag), produced in SF9 insect cells (peptide-MHC)
chain: TMALQIPSLLLSAAVVVLMVLSSPRTLSISQAVHAAHAEINEAGRASGGGGSGGGGNSERHFVVQFKGECYYTNGTQRIRLVTRYIYNREEYVRYDSDVGEYRAVTELGRPDAEYWNSQPEILERTRAEVDTACRHNYEGPETSTSLRRLEQPNVAISLSRTEALNHHNTLVCSVTDFYPAKIKVRWFRNGQEETVGVSSTQLIRNGDWTFQVLVMLEMTPHQGEVYTCHVEHPSLKSPITVEWTSGGGGSGGGGSGGGGSGGGGSSSEDDIEADHVGFYGTTVYQSPGDIGQYTHEFDGDELFYVDLDKKKTVWRLPEFGQLILFEPQGGLQNIAAEKHNLGILTKRSNFTPATNEAPQATVFPKSPVLLGQPNTLICFVDNIFPPVINITWLRNSKSVTDGVYETSFLVNRDHSFHKLSYLTFIPSDDDIYDCKVEHWGLEEPVLKHWSRASHHHHHH
B1: in test [22], the IL-2 concentration in DO11 super (U/ml) at 39 ng/well immobilized scIA^d-OVA, extended dilution came to 0 U/ml; the IL-2 concentration in DO11 super (U/ml) at 78 ng/well immobilized sc IA^d-OVA was 45 U/ml; the IL-2 concentration in DO11 super (U/ml) at 78 ng/well immobilized scIA^d-OVA, extended dilution turned out to be 17 U/ml; the IL-2 concentration in DO11 super (U/ml) at 156 ng/well immobilized sc IA^d-OVA turned out to be 100 U/ml. In test [22], the IL-2 concentration in DO11 super (U/ml) at 156 ng/well immobilized scIA^d-OVA, extended dilution is 24 U/ml; the IL-2 concentration in DO11 super (U/ml) at 312 ng/well immobilized sc IA^d-OVA was 109 U/ml; the IL-2 concentration in DO11 super (U/ml) at 312 ng/well immobilized scIA^d-OVA, extended dilution was determined as 35 U/ml; the IL-2 concentration in DO11 super (U/ml) at 625 ng/well immobilized sc IA^d-OVA amounted to 116 U/ml. For the same molecule, in [22], the IL-2 concentration in DO11 super (U/ml) at 625 ng/well immobilized scIA^d-OVA, extended dilution came out at 38 U/ml; the IL-2 concentration in DO11 super (U/ml) at 1250 ng/well immobilized sc IA^d-OVA was 126 U/ml; the IL-2 concentration in DO11 super (U/ml) at 2500 ng/well immobilized sc IA^d-OVA was 143 U/ml; the IL-4 concentration in DO11 super (U/ml) at 78 ng/well immobilized sc IA^d-OVA is 7 U/ml. Also, in test [22], the IL-4 concentration in DO11 super (U/ml) at 156 ng/well immobilized sc IA^d-OVA was found to be 10 U/ml, the IL-4 concentration in DO11 super (U/ml) at 312 ng/well immobilized sc IA^d-OVA amounted to 16 U/ml, the IL-4 concentration in DO11 super (U/ml) at 625 ng/well immobilized sc IA^d-OVA stood at 15 U/ml and the IL-4 concentration in DO11 super (U/ml) at 1250 ng/well immobilized sc IA^d-OVA stood at 20 U/ml. In [22], this molecule displayed an IL-4 concentration in DO11 super (U/ml) at 2500 ng/well immobilized sc IA^d-OVA of 23 U/ml; an IL-r [IL-4] concentration in DO11 super (U/ml) at 39 ng/well immobilized scIA^d-OVA, extended dilution of 0 U/ml; an IL-r [IL-4] concentration in DO11 super (U/ml) at 78 ng/well immobilized scIA^d-OVA, extended dilution of 0.8 U/ml; an IL-r [IL-4] concentration in DO11 super (U/ml) at 156 ng/well immobilized scIA^d-OVA, extended dilution of 0.9 U/ml. Also, in [22], the IL-r [IL-4] concentration in DO11 super (U/ml) at 312 ng/well immobilized scIA^d-OVA, extended dilution turned out to be 1.5 U/ml and the IL-r [IL-4] concentration in DO11 super (U/ml) at 625 ng/well immobilized scIA^d-OVA, extended dilution was found to be 2 U/ml.

B2: membrane-bound single-chain I-A^d-OVA (SCT1 gene, with the alpha chain transmembrane domain) on transfected NS-0 cells (peptide-MHC)
chain: TMALQIPSLLLSAAVVVLMVLSSPRTLSISQAVHAAHAEINEAGRASGGGGSGGGGNSERHFVVQFKGECYYTNGTQRIRLVTRYIYNREEYVRYDSDVGEYRAVTELGRPDAEYWNSQPEILERTRAEVDTACRHNYEGPETSTSLRRLEQPNVAISLSRTEALNHHNTLVCSVTDFYPAKIKVRWFRNGQEETVGVSSTQLIRNGDWTFQVLVMLEMTPHQGEVYTCHVEHPSLKSPITVEWTSGGGGSGGGGSGGGGSGGGGSSSEDDIEADHVGFYGTTVYQSPGDIGQYTHEFDGDELFYVDLDKKKTVWRLPEFGQLILFEPQGGLQNIAAEKHNLGILTKRSNFTPATNEAPQATVFPKSPVLLGQPNTLICFVDNIFPPVINITWLRNSKSVTDGVYETSFLVNRDHSFHKLSYLTFIPSDDDIYDCKVEHWGLEEPVLKHWEPEIPAPMSELTETVVCALGLSVGLVGIVVGTIFIIQGLRSGGTSRHPGPL
In [22], B2 showed an IL-2 ELISA result (Absorbance), DO11.10 with T2 (SCT1 transfectant) cells of 0.758; an IL-2 ELISA result (Absorbance), DO11.10 with T6 (SCT1 transfectant) cells of 0.307; an IL-2 ELISA result (Absorbance), DO11.10 with T12 (SCT1 transfectant) cells of 1.03.

The values are drawn from US7141656.
